What was measured:
human Gas6 = target: T1, human Gas6 (Homo sapiens, UniProt Q14393); assay: Kinetic Exclusion Assay (KinExA), Gas6-Axl binding, human Gas6
T1 sequence (Q14393 31-678): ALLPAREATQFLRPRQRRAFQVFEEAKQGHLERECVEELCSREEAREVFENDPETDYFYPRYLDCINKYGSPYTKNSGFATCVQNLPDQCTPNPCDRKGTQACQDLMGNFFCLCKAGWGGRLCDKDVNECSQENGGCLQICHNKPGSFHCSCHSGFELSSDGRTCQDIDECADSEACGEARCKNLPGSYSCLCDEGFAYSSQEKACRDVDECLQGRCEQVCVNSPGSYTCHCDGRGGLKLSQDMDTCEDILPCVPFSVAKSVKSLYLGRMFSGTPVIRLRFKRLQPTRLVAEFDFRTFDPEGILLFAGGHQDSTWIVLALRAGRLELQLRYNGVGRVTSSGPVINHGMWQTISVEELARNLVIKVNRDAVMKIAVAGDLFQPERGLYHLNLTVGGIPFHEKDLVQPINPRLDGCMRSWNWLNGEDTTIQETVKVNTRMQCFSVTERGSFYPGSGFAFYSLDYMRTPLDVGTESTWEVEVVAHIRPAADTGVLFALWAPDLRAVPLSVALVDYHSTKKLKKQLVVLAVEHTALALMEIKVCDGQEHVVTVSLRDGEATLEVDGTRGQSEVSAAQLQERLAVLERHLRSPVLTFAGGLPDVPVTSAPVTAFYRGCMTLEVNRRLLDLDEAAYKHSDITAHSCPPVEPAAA
Procedure: Equilibrium binding and association rate constants for all Gas6-Axl interactions were measured on a KinExA3200 instrument (Sapidyne Instruments Inc. Boise, Id.) as previously described. For equilibrium binding studies, three independent titrations were completed for each Axl Ig1 or Axl Fc fusion unless otherwise noted. […] After the appropriate incubation time, reactions were flowed over MYD1 Fc coated beads and captured free Gas6 was probed using an anti-6×HIS Dylight 649 antibody (#200-343-382, Rockland Immunochemicals Inc., Pottstown, Pa.). Each sample was measured twice and data from the three independent equilibrium binding experiments were globally analyzed using n-curve analysis in the KinExA Pro 3.6.2 software (Sapidyne Instruments Inc. Boise, Id.) to obtain the Kd value. To analyze the association rate of the interactions, the direct inject method was used. For these experiments, 1 μM Axl was serially diluted 1:2.5, and equal volumes of each Axl sample and 500 nM Gas6 were briefly mixed and flowed over the capture beads. Free Gas6 was detected as described and the data was fit using the KinExA Pro 3.6.2 software to obtain the association rate (kon) of the interaction. The dissociation rate (koff) was calculated as the product of the Kd and the kon.

[1] = system: Axl and FLT3 phosphorylation in AML cells; assay: Western blot of Axl and FLT3 phosphorylation in AML cells; type: cell-based, human
Text: Cell lysates subjected to sodium dodecyl sulfate polyacrylamide gel electrophoresis followed by transfer to nitrocellulose membrane. The membranes were then probed with primary antibodies against total Axl (AF154, R&D Systems, INC., Minneapolis, Minn.), phospho-Axl (T702; #5724, CST, Danvers, Mass.), total Akt (#4691 CST, Danvers, Mass.), phosphor-Akt (#4060, CST, Danvers, Mass.), anti-MERTK (#ab52968, Abcam, Cambridge, Mass.), phospho-MERTK (#ab14921 Abcam, Cambridge, Mass.), anti-Tyro3 (#5585, CST, Danvers, Mass.), phospho-Tyro3 (#orb186274, Biorbyt LLC, Berkely, Calif.), Bcl-2 Family Antibody Sampler Kit (#9934, CST, Danvers, Mass.), anti-Chk2 (#sc-5278, Santa Cruz Biotech, INC., Santa Cruz, Calif.), anti-XRCC1 (#2735, CST, Danvers, Mass.), anti-γH2AX (Merck Millipore #05636, Darmstadt, Germany), anti-phospho-ATM (#ab81292, Abcam, Cambridge, Mass.), anti-ATM (#ab78, Abcam, Cambridge, Mass.), anti phospho-ATR (#2853, CST, Danvers, Mass.), anti-ATR (#2790, CST, Danvers, Mass.), anti-Phospho Chk1 (#12302, CST, Danvers, Mass.), anti-Phospho Chk2 (#2197, CST, Danvers, Mass.) and anti-RPA32 (#2208, CST, Danvers, Mass.) at 4° C. overnight. The blots were then washed and probed with HRP conjugated anti-goat (#sc-2020, Santa Cruz Biotech, INC., Santa Cruz, Calif.), or HRP conjugated anti-rabbit (#A16110, Thermo Fisher Scientific, Walthan, Mass.) as appropriate. The blots were developed with Bio-Rad Western C developing reagent (#170-5060 Bio-Rad, Hercules, Calif.) and visualized with Chemidoc digital imager (#1708280, Bio-Rad, Hercules, Calif.).

free, circulating Gas6 [2] = target: T2, free, circulating Gas6 (Mus musculus, UniProt Q61592); assay: In vivo Gas6 serum ELISA (sequestration of endogenous Gas6); settings: single 0.5 mg/kg dose via tail vein, up to 36 hours
T2 construct: from tissue; host or cells: mouse serum (nude nu/nu mice)
T2 sequence (Q61592 28-674): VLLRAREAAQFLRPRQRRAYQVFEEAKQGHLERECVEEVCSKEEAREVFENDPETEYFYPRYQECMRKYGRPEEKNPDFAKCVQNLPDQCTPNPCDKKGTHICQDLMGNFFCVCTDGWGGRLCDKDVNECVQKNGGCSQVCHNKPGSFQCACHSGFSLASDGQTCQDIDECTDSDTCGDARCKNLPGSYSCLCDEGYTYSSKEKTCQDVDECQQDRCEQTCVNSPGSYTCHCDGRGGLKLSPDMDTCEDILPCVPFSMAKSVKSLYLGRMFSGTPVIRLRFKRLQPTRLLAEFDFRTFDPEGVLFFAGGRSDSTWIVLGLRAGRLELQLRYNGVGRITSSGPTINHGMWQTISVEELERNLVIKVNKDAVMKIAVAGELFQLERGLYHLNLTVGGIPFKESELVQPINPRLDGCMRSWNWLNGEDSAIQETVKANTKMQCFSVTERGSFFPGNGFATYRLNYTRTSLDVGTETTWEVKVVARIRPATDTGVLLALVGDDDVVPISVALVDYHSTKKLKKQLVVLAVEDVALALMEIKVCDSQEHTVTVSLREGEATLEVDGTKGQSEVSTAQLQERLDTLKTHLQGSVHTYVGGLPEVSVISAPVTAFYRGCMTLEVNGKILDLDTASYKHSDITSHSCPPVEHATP
Procedure: The amount of free, circulating Gas6 (i.e. not neutralized by the decoy receptor) was then quantified.
All doses were formulated in a 200 μl volume. Two mice were analyzed per condition and untreated mice were used to determine baseline Gas6 levels. At 2, 12, 24, and 36 h post-administration, retro-orbital bleeds were performed to obtain blood samples from which serum was isolated and free Gas6 was measured as previously described. The amount of free Gas6 in each sample was determined using a sandwich ELISA. In this assay, MYD1 Fc was used as a capture reagent in order to ensure the detection of free, unbound Gas6, and not Gas6/Axl Fc complexes. Detection of Gas6 was carried out using a biotinylated polyclonal anti-mouse Gas6 antibody (BAF986, R&D Systems, INC., Minneapolis, Minn.) and streptavidin HRP (#4800-30-06 Trevigen Inc., Gaithersburg, Md.).

free, circulating Gas6 [3] = target: T2, free, circulating Gas6; settings: as previously determined using the same assay; cited from earlier work

B1: MYD1 Fc: Fc fusion of the first generation Axl decoy receptor MYD1 (protein)
chain: APRGTQAEESPFVSNPGNITGARGLTGTLRCQLQVQGEPPEVHWLRDGQILELADSTQTQVPLGEDEQGDWIVASQLRITSLQLSDTGQYQCLVFLGHQTFVSQPGYVRLEGLPYFLEEPEDRTVAANTPFNLSCQAQGPPEPVDLLWLQDAVPLATAPGHGPQRSLHVPGLNKTSSFSCEAHNAKGVTTSRTATITVLPQQPRNLHLVSRQPTELEVAWTPGLSGIYPLTHCTLQAVLSNDGMGIQAGEPDPPEEPLTSQASVPPHQLRLGSLHPHTPYHIRVACTSSQGPSSWTHWLPVETPEGVPLGPPENISATRNGSQAFVHWQEPRAPLQGTLLGYRLAYQGQDTPEVLMDIGLRQEVTLELQGDGSVSNLTVCVAAYTAAGDGPWSLPVPLEAWRPGQAQPVHQLVKEPSTPAFS
modifications: left off: a dimerising Fc or GST
koff (human Gas6; calculated as the product of the Kd and the kon): 1.0 10^−5 s^−1 | kon (human Gas6; direct inject method): 2.3 10^7 M^−1 s^−1 | Axl and FLT3 phosphorylation [1]: inhibited Axl and FLT3 phosphorylation | free, circulating Gas6 in serum (free, circulating Gas6 [2]): rapidly eliminated free Gas6 upon administration | in vivo IC50 (free, circulating Gas6 [3]): 0.5 mg/kg

— patent US20180140679A1, “MODULATION OF AXL RECEPTOR ACTIVITY IN COMBINATION WITH CYTOREDUCTIVE THERAPY” (THE BOARD OF TRUSTEES OF THE LELAND STANFORD JUNIOR …, priority 2016, published 2018)
